Measurements published in patent US20040077031A1, “Novel methionine aminopeptidase-2 and uses thereof” (priority 2002, published 2004).

Columns and labels:
Experiment in all cases: Kinetic constants of MetAP2 with Mn2+ on peptide substrates (chromogenic assay)
Assay type in all cases: biochemical, human
Conditions in all cases: other: MetAP2 with 100 μM Mn2+; pH 7.4
[1] = substrate: CSCC[C@H](N)C(=O)NCC(=O)N[C@@H](C)C(=O)N[C@@H](CCC(N)=O)C(=O)N[C@@H](Cc1ccccc1)C(=O)N[C@@H](CO)C(=O)N[C@@H](CCCCN)C(=O)N[C@H](C(=O)O)[C@@H](C)O
Text: (§1) A coupled-enzyme chromogenic assay was used to measure methionine aminopeptidase activity by monitoring the production of free methionine cleaved from specific peptide substrates containing methionine. […] Free methionine was oxidized with L-amino acid oxidase (AAO, Sigma Catalog No. A-9378) and horseradish peroxidase (HRP, Sigma Catalog No. P-8451). Oxidation by AAO of free methionine generates hydrogen peroxide (H2O2) which then reacts with HRP oxidizing 0-dianisidine (Sigma Catalog No. D-1954) or 10-acetyl-3,7-dihydrophenoxazine (Amplex Red, Molecular Probes). Assays were performed in 96-well microtiter plates. Enzyme preparations were diluted in assay buffer (50 mM HEPES, pH 7.4, 100 mM NaCl), and 10 μl of the enzymes were introduced into each well. A mixture (90 μl) of 0.1 mg/ml L-amino acid oxidase, 0.1 mg/ml of horseradish peroxidase, 0.1 mg/ml ortho-dianisidine, and 0.5 mM peptide substrate was added to each cell. The reactions were carried out at room temperature, and the absorbance at 450 nanometer (A450) was measured every 20 seconds over a period of twenty minutes using an automatic plate reader (Molecular Devices, Calif., USA). The rate in mOD/min, calculated for each well, was used to represent MetAP1 or MetAP2 activity. Under this assay condition, the methionine cleaved from peptide substrate by MetAP1 or MetAP2 was instantaneously oxidized to generate a final A450 readout. It was determined that 1 μM methionine generated a 2.25 mOD increase in the A450 readout.
(§2) MetAP2 using Mn^2+ as cofactor was studied to obtain kinetic constants on several peptide substrates. […] Enzyme kinetics was studied using the chromogenic assay to determine enzymatic activity as described in Example 3. […] These peptides were tested at a final concentration of 20, 40, 80, 160, 320, and 640 μM in the assay buffer (50 mM HEPES, pH 7.4, 100 mM NaCl). […] The initial rate of methionine cleavage was determined by measuring the A450 change as described above. Kinetic constants were calculated using Linewaver-Burk plots.

[2] = substrate: CSCC[C@H](N)C(=O)NCC(=O)N[C@@H](CC(N)=O)C(=O)N[C@@H](C)C(=O)N[C@@H](C)C(=O)N[C@@H](C)C(=O)N[C@@H](C)C(=O)N[C@@H](CCCCN)C(=O)O
Text: as §1, §2

[3] = substrate: CSCC[C@H](N)C(=O)NCC(=O)N[C@@H](CC(N)=O)C(=O)N[C@@H](CC(C)C)C(=O)N[C@@H](CCCCN)C(=O)N[C@@H](CO)C(=O)N[C@H](C(=O)N[C@@H](C)C(=O)O)C(C)C
Text: as §1, §2

[4] = substrate: CSCC[C@H](N)C(=O)NCC(=O)N[C@@H](CCCCN)C(=O)N[C@H](C(=O)N[C@@H](CCCCN)C(=O)N[C@H](C(=O)NCC(=O)N[C@H](C(=O)N[C@@H](CC(N)=O)C(=O)NCC(=O)N[C@@H](Cc1ccccc1)C(=O)O)C(C)C)C(C)C)C(C)C
Text: as §1, §2

[5] = substrate: CSCC[C@H](N)C(=O)NCC(=O)N[C@@H](CCCCN)C(=O)N[C@H](C(=O)N[C@@H](CCCCN)C(=O)N[C@H](C(=O)NCC(=O)N[C@H](C(=O)N[C@@H](CC(N)=O)C(=O)NCC(=O)O)C(C)C)C(C)C)C(C)C
Text: as §1, §2

[6] = substrate: CSCC[C@H](N)C(=O)NCC(=O)N[C@@H](CCCCN)C(=O)N[C@H](C(=O)N[C@@H](CCCCN)C(=O)N[C@H](C(=O)NCC(=O)N[C@H](C(=O)N[C@@H](CC(N)=O)C(=O)O)C(C)C)C(C)C)C(C)C
Text: as §1, §2

[7] = substrate: CSCC[C@H](N)C(=O)NCC(=O)N[C@@H](CCCCN)C(=O)N[C@H](C(=O)N[C@@H](CCCCN)C(=O)N[C@H](C(=O)O)C(C)C)C(C)C
Text: as §1, §2

[8] = substrate: CSCC[C@H](N)C(=O)NCC(=O)N[C@@H](CCCCN)C(=O)N[C@H](C(=O)N[C@@H](CCCCN)C(=O)O)C(C)C
Text: as §1, §2

[9] = substrate: CSCC[C@H](N)C(=O)NCC(=O)N[C@@H](CCCCN)C(=O)N[C@H](C(=O)O)C(C)C
Text: as §1, §2

[10] = substrate: CSCC[C@H](N)C(=O)NCC(=O)N[C@@H](CCCCN)C(=O)O
Text: as §1, §2

[11] = substrate: CSCC[C@H](N)C(=O)NCC(=O)N[C@@H](CO)C(=O)N[C@@H](CO)C(=O)N[C@@H](CCCCN)C(=O)N[C@@H](CO)C(=O)N[C@@H](CCCCN)C(=O)N1CCC[C@H]1C(=O)O
Text: as §1, §2

[12] = substrate: CSCC[C@H](N)C(=O)N[C@@H](C)C(=O)N[C@@H](CO)C(=O)O
Text: as §1, §2

B1: MetAP2 (Homo sapiens) (protein)
chain: MAGVEEVAASGSHLNGDLDPDDREEGAASTAEEAAKKKRRKKKKSKGPSAAGEQEPDKESGASVDEVARQLERSALEDKERDEDDEDGDGDGDGATGKKKKKKKKKRGPKVQTDPPSVPICDLYPNGVFPKGQECEYPPTQDGRTAAWRTTSEEKKALDQASEEIWNDFREAAEAHRQVRKYVMSWIKPGMTMIEICEKLEDCSRKLIKENGLNAGLAFPTGCSLNNCAAHYTPNAGDTTVLQYDDICKIDFGTHISGRIIDCAFTVTFNPKYDTLLKAVKDATNTGIKCAGIDVRLCDVGEAIQEVMESYEVEIDGKTYQVKPIRNLNGHSIGQYRIHAGKTVPIVKGGEATRMEEGEVYAIETFGSTGKGVVHDDMECSHYMKNFDVGHVPIRLPRTKHLLNVINENFGTLAFCRRWLDRLGESKYLMALKNLCDLGIVDPYPPLCDIKGSYTAQFEHTILLRPTCKEVVSRGDDY
notes: gp67 secretion signal of vector pAcGP67B (N); made in house; host or cells: baculovirus-infected Sf9 insect cells, secreted into medium
With B1 as the protein, how does the Km [1] read?
The Km was 224.4 µM.

What about the kcat [1] of the same protein?
The kcat was 4.87 s⁻¹.

And the kcat/Km [1]?
Its kcat/Km is 21700 M⁻¹ s⁻¹.

And the Km [2]?
The Km was 259.9 µM.

What about the kcat [2] of the same protein?
Its kcat is 3.78 s⁻¹.

And the kcat/Km [2]?
Its kcat/Km is 15000 M⁻¹ s⁻¹.

What about the Km [3] of the same protein?
The Km was 208.3 µM.

What about the kcat [3] of the same protein?
Its kcat is 4.87 s⁻¹.

What about the kcat/Km [3] of the same protein?
The kcat/Km was 23300 M⁻¹ s⁻¹.

What about the Km [4] of the same protein?
The Km was 131.3 µM.

What about the kcat [4] of the same protein?
The kcat was 9.43 s⁻¹.

And the kcat/Km [4]?
Its kcat/Km is 71700 M⁻¹ s⁻¹.

And the Km [5]?
Its Km is 163.6 µM.

What about the kcat [5] of the same protein?
The kcat was 10.2 s⁻¹.

What about the kcat/Km [5] of the same protein?
The kcat/Km was 61700 M⁻¹ s⁻¹.

And the Km [6]?
The Km was 205.0 µM.

And the kcat [6]?
The kcat was 10.2 s⁻¹.

What about the kcat/Km [6] of the same protein?
Its kcat/Km is 50000 M⁻¹ s⁻¹.

And the Km [7]?
The Km was 149.3 µM.

What about the kcat [7] of the same protein?
Its kcat is 8.53 s⁻¹.

And the kcat/Km [7]?
Its kcat/Km is 56700 M⁻¹ s⁻¹.

And the Km [8]?
The Km was 188.1 µM.

And the kcat [8]?
The kcat was 10.4 s⁻¹.

What about the kcat/Km [8] of the same protein?
The kcat/Km was 55000 M⁻¹ s⁻¹.

What about the Km [9] of the same protein?
The Km was 623.7 µM.

What about the kcat [9] of the same protein?
Its kcat is 6.7 s⁻¹.

And the kcat/Km [9]?
Its kcat/Km is 10000 M⁻¹ s⁻¹.

What about the Km [10] of the same protein?
Its Km is 757.6 µM.

What about the kcat [10] of the same protein?
Its kcat is 3.32 s⁻¹.

And the kcat/Km [10]?
Its kcat/Km is 5000 M⁻¹ s⁻¹.

And the Km [11]?
The Km was 233.1 µM.

What about the kcat [11] of the same protein?
The kcat was 3.94 s⁻¹.

And the kcat/Km [11]?
Its kcat/Km is 16700 M⁻¹ s⁻¹.

What about the Km [12] of the same protein?
The Km was 211.5 µM.

And the kcat [12]?
The kcat was 2.54 s⁻¹.

What about the kcat/Km [12] of the same protein?
The kcat/Km was 12000 M⁻¹ s⁻¹.
